Data on three proteins can be found in article doi:10.1101/2023.02.23.529735 (bioRxiv, 2023).

Data set [1] deals with the molecule itself. Briefly: FRET or BRET.
Data set [2] concerns the molecule itself. Briefly: FRET or BRET. This is another data set of the same source. Background: In BRET a luciferase serves as donor, and the signal depends on an acceptor being close.

B1: H-NS86-VC (H-NS amino acids 1-86 fused at the C-terminus to the mVenus-mCherry VC domain) (domain or fragment, E. coli, UniProt P0ACF8 1-86, looked up)
chain: MVSEALKILNNIRTLRAQARECTLETLEEMLEKLEVVVNERREEESAAAAEVEERTRKLQQYREMLIADGIDPNELLNSLAAVKSGT
Regarding B1, in data set [1], the “FRET/Donor ratio, exponentially growing cells” value was 0.132. In addition, in data set [2], the “FRET ratio (acceptor/donor) in foci, no additive” value is 0.073 and the “FRET ratio (acceptor/donor) in the solution outside the foci, no additive” value amounted to 0.068.

B2: H-NS64-VC (H-NS amino acids 1-64 fused at the C-terminus to the mVenus-mCherry VC domain) (domain or fragment, E. coli, UniProt P0ACF8 1-64, looked up)
chain: MVSEALKILNNIRTLRAQARECTLETLEEMLEKLEVVVNERREEESAAAAEVEERTRKLQQYREM
In the case of B2, the “FRET/Donor ratio, exponentially growing cells” value in data set [1] turned out to be 0.126.

B3: H-NS-VC (Histone-like Nucleoid Structuring protein H-NS fused at its C-terminus to the mVenus-mCherry VC domain) (natural protein, E. coli, UniProt P0ACF8 1-137, looked up)
chain: MGSEALKILNNIRTLRAQARECTLETLEEMLEKLEVVVNERREEESAAAAEVEERTRKLQQYREMLIADGIDPNELLNSLAAVKSGTKAKRAQRPAKYSYVDENGETKTWTGQGRTPAVIKKAMDEQGKSLDDFLIKQ
On to B3, for which, in data set [1], the “FRET/Donor ratio, after a 6 min heat shock at 42 °C” value was found to be 0.162; the “FRET/Donor ratio, exponentially growing cells” value was 0.105; the “FRET/Donor ratio, spheroplasts returned from 880 mOsm to 220 mOsm” value was 0.181. In data set [2], the “FRET ratio (acceptor/donor) in foci, no additive” value came to 0.07 and the “FRET ratio (acceptor/donor) in the solution outside the foci, no additive” value was 0.082.
